We go through 31 sequences from the supplement of paper PMC9170038.

The subject of this series is MS2 coat protein. Put plainly: apparent KD of MS2 coat protein; designed switch direction (-1 OFF switch, 1 ON switch): -1; higher = weaker reporter binding. In short, it runs like this:
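Three titration conditions were used: no input, 200 uM small-molecule ligand, and an oligonucleotide input. In each, SNAP-549-labelled MS2 coat protein was raised from 0.7 or 1.5 nM, doubling, to 3 µM over designed RNA switches transcribed on Illumina chips by stalled E. coli RNA polymerase. Curve fits of normalised cluster fluorescence gave values whose per-design median over clusters is the apparent KD.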

Where [1] appears, read: Eterna round: R95, input ligand: FMN 200 uM.
Setting [2] is: Eterna round: R95, input ligand: microRNA oligo, concentration not stated.
Where [3] appears, read: Eterna round: R95, input ligand: none.
Where [4] appears, read: input ligand: microRNA oligo, concentration not stated.

On to “AAGCCCUGAGGAUAUCCCAACUCGCACAUGAGGAUCACCCAUGUCCUUCUCUGGGUUUCGGGAGAAGGCAGGCCUC [Megrez-8.3] (Eterna round: R97, puzzle: Exclusion 5)”, for which the “apparent KD of MS2 coat protein” value worked out at 398 nM (input ligand: FMN 200 uM) and 911 nM (input ligand: none).

For “CUGUAGCUACAAGCUUUUUGCACGUCAGGUAGUGACGCAACAUGAGGAUCACCCAUGUAUAGGGUGGGACAGGAUAG [JR_SV3TOV2_Sub049] (puzzle: Sensor v3, turn-off variant 2)”, the “apparent KD of MS2 coat protein” value is 443 nM under setting [1], 153 nM under setting [2] and 495 nM under setting [3].

For “CAAAGAUAAGGAUAUUGAAGGUUCGACAUGAGGAUCACCCAUGUUAUGUUGGAAAAGGGACAAGAAGGUAUGAAAA [salish99_ex5_r4_214] (Eterna round: R97, puzzle: Exclusion 5)”, the “apparent KD of MS2 coat protein” value worked out at 31.5 nM (input ligand: FMN 200 uM) and 39.3 nM (input ligand: none).

On to “AUUGUAGUUGUGAGGAUAUCGUUGAUUUUUUGAAACGAGAAGGCACAUGAGGAUCACCCAUGUUAGUUGUUGGU [JR_BMOE4_Sub056] (puzzle: Brourd's mod of Exclusion 4)”, for which the “apparent KD of MS2 coat protein” value under setting [2] amounted to 65.4 nM.

On to “GCAGCAUAGUUAACAGACUGUUACAUGAGGAUCACCCAUGUACAGGAUAUGGUCUGGAUUACAGGCCAGAAGGGUACAAGCUGC [Eli exng3 - 019] (Eterna round: R96, puzzle: Exclusion NG 3)”, for which the “apparent KD of MS2 coat protein” value runs as follows: (input ligand: FMN 200 uM) 10.1 nM; under setting [4], 8.94 nM; (input ligand: none) 11.6 nM.

On to “GCAUGCUAUGUCAGGAUAUACCUCUGGAUACAUAGGUAGAAGGGACAUGAGGAUCACCCAUGUCCUAAACAUGC [Fiskers BMX 4 - 26] (puzzle: Brourd's mod of Exclusion 4)”, for which the “apparent KD of MS2 coat protein” value under setting [2] came out at 11.4 nM.

As to “AGCUGACAAGGAUAUACAUGAGGAUCACCCAUGUUGGUUCAGCGACGAUAGUCGCAAUGUAGAAGGUGUCAGCU [E3/9-C2] (Eterna round: R97, puzzle: Exclusion 3)”, the “apparent KD of MS2 coat protein” value runs as follows: (input ligand: FMN 200 uM) 108 nM; (input ligand: none) 282 nM.

With “GAGCCGCGAGGAUAUACAGACGAGUCCAUUACGUGUCUCGGACUUGAGGAUCACCCAAGUAGAAGGCGUCUCAG [salish99_ex2_r4_629] (Eterna round: R97, puzzle: Exclusion 2)”, the “apparent KD of MS2 coat protein” value is, setting by setting: (input ligand: FMN 200 uM) 34.3 nM; (input ligand: none) 34.2 nM.

For the sequence “AUAUAUAUAGGAUAUACAUGAGGAUCACCCAUGUAAAGUAGCUUGCGUACAGGCAGAUGUAGAAGGAUAUAUAU [Mod of JL 15 - Jieux - Exclusion 3] (Eterna round: R97, puzzle: Exclusion 3)”, the “apparent KD of MS2 coat protein” value is, setting by setting: (input ligand: FMN 200 uM) 29.2 nM; (input ligand: none) 33.1 nM.

Turning to “UGAGUGCUGCGAGGAUAUACAUGAGGAUCACCCAUGUAAUAGUGUGAGGCUUUGCCUCACACAAUGUAGAAGGCGCAGUACUCU [JL ENG2 1.02] (Eterna round: R96, puzzle: Exclusion NG 2)”, the “apparent KD of MS2 coat protein” value reads like this: (input ligand: FMN 200 uM) 17.1 nM; under setting [4], 8.58 nM; (input ligand: none) 12.5 nM.

With “AGCUAGUCAGGAUAUUCUAAUAAUUACAUGAGGAUCACCCAUGUGAAUGGACAAGGGUGUGAAGAAGGGACUAGCG [Omei Ex5 A9] (Eterna round: R97, puzzle: Exclusion 5)”, the “apparent KD of MS2 coat protein” value is, setting by setting: (input ligand: FMN 200 uM) 429 nM; (input ligand: none) 1230 nM.

As for “AUAUUUAAGCUUUUGUGAAACAUGAGGAUCACCCAUGUCCUCAUACCUGGACAUUUAAGUCUAGGAGCUCGUCUUAU [Last end dangle 1] (Eterna round: R97, puzzle: Sensor, turn-off variant 1)”, the “apparent KD of MS2 coat protein” value reads like this: (input ligand: FMN 200 uM) 518 nM; (input ligand: none) 558 nM.

For “CUAGAUCUUCGGAUCUAGGACAUGAGGAUCACCCAUGUCACGAGCAGAUCCUCAUGCAAGCUUUUUGCUCGUCUUAU [Sensor v3 - Turn-off variant 1 - 36] (puzzle: Sensor v3, turn-off variant 1)”, the “apparent KD of MS2 coat protein” value reads like this: under setting [1], 133 nM; under setting [2], 17.4 nM; under setting [3], 70.1 nM.

For “CUCCCUUCAGGAUAUACAUGAGGAUCACCCAUGUGUUCCAGCUAGGAAACUAGCAAAUGUAGAAGGGAAGGGAG [Mat - Exclusion 3 - JL Mod - D4] (Eterna round: R97, puzzle: Exclusion 3)”, the “apparent KD of MS2 coat protein” value (input ligand: FMN 200 uM) turned out to be 183 nM and the “apparent KD of MS2 coat protein” value (input ligand: none) turned out to be 90 nM.

For the sequence “CUGUGUAGACAGGAUAUGCUGUACAAAAGUACAGCAGAAGGGUCUACAUGAGGAUCACCCAUGUAUACCUCAUG [)mei Ex6 B25] (Eterna round: R97, puzzle: Exclusion 6)”, the “apparent KD of MS2 coat protein” value by setting is: (input ligand: FMN 200 uM) 735 nM; (input ligand: none) 88.8 nM.

With “AAGGUGUUAGGAUAUCGGAGUUUGAGGCAGACGGGAAUUUUCGAGAAGGAACAUGAGGAUCACCCAUGUAGUAU [JR_Exclu4_Sub039] (puzzle: Exclusion 4)”, under setting [2], the “apparent KD of MS2 coat protein” value was found to be 21.6 nM.

Take “CGCAACGCAAGAGGAUAUGUUGGACAUGAGGAUCACCCAUGUAAAAUUGGCGAAACGCAUAUCCAGUAGAAGGCUUCCGAGCAA [Eternabot solution 15] (Eterna round: R96, puzzle: Exclusion NG 2)”: the “apparent KD of MS2 coat protein” value runs as follows: (input ligand: FMN 200 uM) 34.6 nM; under setting [4], 15.9 nM; (input ligand: none) 24.1 nM.

Turning to “AAAAUACAUGAGGAUCACCCAUGUGAGGAUAUGAGCGUCAUUUAUAUAUAUUAGACGCUCAGAAGGCACAUAAA [JR_Ex1_Sub069] (Eterna round: R97, puzzle: Exclusion 1)”, the “apparent KD of MS2 coat protein” value by setting is: (input ligand: FMN 200 uM) 214 nM; (input ligand: none) 44.3 nM.

In the case of “AAGUACCGUCACGAUAGUGAUGGUACAACAGGUAGUGAAACAUGAGGAUCACCCAUGUCCUCAAUUGCUCGUCUUAU [Sensor 3 - 84] (puzzle: Sensor v3, turn-off variant 2)”, the “apparent KD of MS2 coat protein” value was determined as 773 nM under setting [1], 179 nM under setting [2] and 716 nM under setting [3].

Turning to “AACUCACAUGAGGAUCACCCAUGUGAGGAUAUGUGAGUGUGUAUGUUAUUAUAUAUUUAUAGAAGGCGCGUGAU [JR_Exc1_Sub029] (Eterna round: R97, puzzle: Exclusion 1)”, the “apparent KD of MS2 coat protein” value is 24.5 nM (input ligand: FMN 200 uM) and 23.1 nM (input ligand: none).

In the case of “CAGUACUGAGGAUAUACAUGAGGAUCACCCAUGUGUUCCAGCUAGGAAAGUAGCAAAAGUAGAAGGCAGUACUG [salish99_ex3_r3_072] (puzzle: Exclusion 3)”, the “apparent KD of MS2 coat protein” value by setting is: under setting [1], 291 nM; under setting [2], 26.7 nM; under setting [3], 21.6 nM.

Consider “AUAUAUAGUGUGAGGAUAUGCUGGUCCUUGGAUCAGCAGAAGGCACAUGAGGAUCACCCAUGUAGUUUAUUUUU [Mat - Exclusion 4 - JL Mod - D5] (puzzle: Brourd's mod of Exclusion 4)”, for which the “apparent KD of MS2 coat protein” value under setting [2] came out at 26.2 nM.

“CCGGCGUGGUGCGGUAGUUGUACGACAUGAGGAUCACCCAUGUAGGAUAUGCGCGUGGUCGCGCCGCAGAAGGACAACGUUUGG [Random, 20% A] (Eterna round: R96, puzzle: Exclusion NG 3)”: the “apparent KD of MS2 coat protein” value by setting is: (input ligand: FMN 200 uM) 19.6 nM; under setting [4], 14.6 nM; (input ligand: none) 23.9 nM.

For “GCAAGCUUUUCGAUCCUCUACAUGAGGAUCACCCAUGUGCUCGAAUUGUUUGGUACUAUCACGAAAGUGAUAGUACA [Sensor, turn off variant 1 v.4] (Eterna round: R97, puzzle: Sensor, turn-off variant 1)”, the “apparent KD of MS2 coat protein” value runs as follows: (input ligand: FMN 200 uM) 936 nM; (input ligand: none) 1150 nM.

For “GUGUGCAGAGGAUAUACAGAGGAAAAGAAAAGAUAAGUGAUACAUGAGGAUCACCCAUGUAGAAGGCUGAGUGU [Excluse me!! 21 - Jieux - Exclusion 2] (puzzle: Exclusion 2)”, the “apparent KD of MS2 coat protein” value under setting [1] was found to be 32.8 nM, the “apparent KD of MS2 coat protein” value under setting [2] was 21.1 nM and the “apparent KD of MS2 coat protein” value under setting [3] was 22.7 nM.

For the sequence “AACUCUAAGCAGGAUAUCUAGCAAACGUCCGCAAGAGAAGGGCUUACAUGAGGAUCACCCAUGUAAGGAUGAUC [Reorzainar] (puzzle: Exclusion 6)”, the “apparent KD of MS2 coat protein” value runs as follows: under setting [1], 48.8 nM; under setting [2], 26 nM; under setting [3], 24.9 nM.

With “GCCCGUGGGCAAGGAUAUCCUACGCUGUUCUGGUUCGUGUCUGUCACAUGAGGAUCACCCAUGUGGGAGAAGGUGCAUUUGGGU [Design 55] (Eterna round: R96, puzzle: Exclusion NG 2)”, the “apparent KD of MS2 coat protein” value (input ligand: FMN 200 uM) came to 14.1 nM, the “apparent KD of MS2 coat protein” value under setting [4] is 11.1 nM and the “apparent KD of MS2 coat protein” value (input ligand: none) amounted to 17.3 nM.

As to “UACUUCCGAGGAUAUACAUGAGGAUCACCCAUGUGCUUCAGCAUUUUUUGAUGCAUGGGUAGAAGGCGGUAGUU [LRO-Excl3-17] (puzzle: Exclusion 3)”, the “apparent KD of MS2 coat protein” value under setting [2] stood at 299 nM.

With “AAUAAAUAAGCAGGAUCCUACAUGAGGAUCACCCAUGUGCUCGUCUUAUAAAGUACUAUCACGAAAGUGAUAGUACA [Mat - Sensor v3 - turn-off var 1 - Eli Mod - D75] (puzzle: Sensor v3, turn-off variant 1)”, the “apparent KD of MS2 coat protein” value stood at 115 nM under setting [1], 103 nM under setting [2] and 145 nM under setting [3].

With “AGUGUGUGGCAGGAUAUUCUAAUGAUUAGGACAGAAGAAGGGUCUACAUGAGGAUCACCCAUGUAAGCGGUUGA [Ex6 #38] (Eterna round: R97, puzzle: Exclusion 6)”, the “apparent KD of MS2 coat protein” value is, setting by setting: (input ligand: FMN 200 uM) 211 nM; (input ligand: none) 82.3 nM.

For “AUUAUAUAGAAAGGAUAUAGAUUAUUAUUUUAACAUGAGGAUCACCCAUGUAGCCUUAUGUAUAACUAGAAGGUUCAUUUAUUA [Title] (Eterna round: R96, puzzle: Exclusion NG 2)”, the “apparent KD of MS2 coat protein” value under setting [4] was 57.9 nM.
